Experiment [1] addresses T1, human FcRn/β2m (human, UniProt P55899 24-297; P61769 21-119).
T1 construct: Soluble FcRn/β2m injected as analyte over immobilised antibody; also called neonatal Fc receptor
Briefly: SPR, antibody immobilised, FcRn/β2m analyte, pH 6.0. (SPR reads the build-up and loss of mass on a sensor chip optically.)
Procedure: (§1) Anti-C2 mAbs (1 μg/mL at pH 5) were immobilized on a carboxylmethyldextran (CM5) sensorchip surface using standard EDC/NHS chemistry. Human and Cyno FcRn/β2m (40 μM) were prepared in running buffer (10 mM HEPES, 150 mM NaCl, 10 mM MES adjusted to either pH 6 or pH 7.3) and injected on the immobilized anti-C2 surface at concentrations ranging from 0.078 to 40 μM, prepared in two-fold dilutions in running buffer. Association and dissociation phases were monitored for 180 and 600 seconds, respectively. […] Double referenced sensorgrams were fitted to either a 1:1 kinetic model (pH 6), including a term for mass transport limitation or to a 1:1 steady state model (pH 7.3) where responses at the end of the association phase were plotted against respective concentrations.
(§2) Binding to both human and cynomolgus monkey FcRn was tested using the SPR methods described above.

Experiment [2] deals with T1, human FcRn/β2m. As to the kind of experiment: SPR, antibody immobilised, FcRn/β2m analyte, pH 7.3.
Procedure: as §1, §2
Experiment [3] concerns the target T1, human FcRn/β2m. Briefly: SPR, antibody immobilised, FcRn/β2m analyte, pH 6.0; pH 6.0.
Procedure: as §1, §2
Experiment [4] addresses T2, cynomolgus monkey FcRn/β2m (cynomolgus monkey, UniProt Q8SPV9 24-297; Q8SPW0 21-119, limits assumed).
T2 construct: injected in solution over immobilised antibody; also called Cyno FcRn/β2m
As to the kind of experiment: SPR, immobilised antibody, cyno FcRn/b2m analyte, pH 6.0; pH 6.0.
Procedure: as §1, §2

The next experiment addresses T3, human C2b (human, UniProt P06681 21-243).
T3 construct: the whole entry is named here
T3 sequence: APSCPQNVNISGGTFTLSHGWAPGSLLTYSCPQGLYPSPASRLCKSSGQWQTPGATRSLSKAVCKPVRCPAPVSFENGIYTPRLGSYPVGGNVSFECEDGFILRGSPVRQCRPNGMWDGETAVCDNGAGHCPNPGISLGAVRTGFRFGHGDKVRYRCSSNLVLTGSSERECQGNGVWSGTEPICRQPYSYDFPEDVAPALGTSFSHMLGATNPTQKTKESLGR
Briefly: SPR, HBS-EP, pH 7.3, 37 C.

In experiment [5] the target is T4, human C2a (activated human C2) (human, UniProt P06681 244-752).
T4 construct: the whole entry is named here; also called huC2a
T4 sequence: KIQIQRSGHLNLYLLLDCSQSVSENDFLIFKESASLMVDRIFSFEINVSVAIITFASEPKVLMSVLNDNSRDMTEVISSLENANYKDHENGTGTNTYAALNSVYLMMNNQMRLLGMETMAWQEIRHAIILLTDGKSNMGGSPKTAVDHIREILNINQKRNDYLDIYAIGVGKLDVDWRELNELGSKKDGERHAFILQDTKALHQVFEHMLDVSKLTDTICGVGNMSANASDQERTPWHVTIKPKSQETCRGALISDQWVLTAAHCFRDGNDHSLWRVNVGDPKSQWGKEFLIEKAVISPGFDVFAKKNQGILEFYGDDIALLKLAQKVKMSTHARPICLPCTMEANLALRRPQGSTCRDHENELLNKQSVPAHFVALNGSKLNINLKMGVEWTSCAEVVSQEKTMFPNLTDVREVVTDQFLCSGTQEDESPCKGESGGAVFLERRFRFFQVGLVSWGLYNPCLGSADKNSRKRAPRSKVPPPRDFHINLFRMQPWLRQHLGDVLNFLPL
Briefly: SPR, HBS-EP, pH 7.3, 37 C.
Procedure: (§3) Surface plasmon resonance (SPR, Biacore) was used for all binding affinity analyses. In brief, goat anti-human IgG was directly immobilised onto the carboxymethyl dextran surface of CM5 sensorchips to approximately 12,000 RU using standard NHS/EDC chemistry at pH 5. The immobilised antibody surface was pre-conditioned with ten injections of polyclonal human IgG (Privigen 60 s) prepared at 1 μg/mL. Ligands (anti-C2 mAbs) were captured at the beginning of each cycle as described below. An adjacent spot or flow cell in which only Polyclonal IgG was capture was used as a reference surface. The goat anti-human IgG Fc antibody surface was regenerate in 100 mM H3PO4, injected for 45 seconds at the end of each cycle. Experiments were performed at 37° C. and the flow rate of each experiment was kept constant at 30 μL/min.
(§4) Purified human C2 zymogen and human C2a were tested at concentrations ranging from 1.9 to 500 nM while human C2b was tested at concentrations ranging from 1.9 to 1000 nM. All experiments were performed in HBS-EP buffer supplemented with 0.1% BSA at 37° C. and pH 7.3. Each antibody was tested against human C2 zymogen and human C2a in duplicate and against C2b in quadruplicate. The flow rate was set to 30 μL/min. Each analyte concentration was tested in duplicate.

In experiment [6] the target is T5, human complement C2 zymogen (human, UniProt P06681 21-752).
T5 construct: also called huC2; human C2
T5 sequence: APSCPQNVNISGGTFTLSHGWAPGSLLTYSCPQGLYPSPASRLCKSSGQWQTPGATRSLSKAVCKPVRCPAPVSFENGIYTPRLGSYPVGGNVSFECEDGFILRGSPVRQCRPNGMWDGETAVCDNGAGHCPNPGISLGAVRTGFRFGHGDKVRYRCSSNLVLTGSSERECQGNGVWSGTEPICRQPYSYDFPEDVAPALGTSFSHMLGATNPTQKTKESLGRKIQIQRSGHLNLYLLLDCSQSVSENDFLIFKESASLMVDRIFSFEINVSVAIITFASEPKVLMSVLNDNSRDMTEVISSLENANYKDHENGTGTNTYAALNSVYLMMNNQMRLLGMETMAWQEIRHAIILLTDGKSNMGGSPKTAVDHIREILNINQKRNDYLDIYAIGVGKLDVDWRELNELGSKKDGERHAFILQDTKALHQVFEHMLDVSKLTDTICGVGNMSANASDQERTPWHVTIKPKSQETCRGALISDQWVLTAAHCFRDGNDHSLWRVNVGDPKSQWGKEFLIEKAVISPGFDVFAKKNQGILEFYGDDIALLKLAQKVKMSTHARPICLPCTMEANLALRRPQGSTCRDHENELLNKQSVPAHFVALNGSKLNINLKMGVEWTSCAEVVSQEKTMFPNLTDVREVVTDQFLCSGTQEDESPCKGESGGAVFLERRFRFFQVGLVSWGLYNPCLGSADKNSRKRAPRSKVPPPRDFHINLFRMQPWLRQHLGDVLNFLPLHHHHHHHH
As to the kind of experiment: SPR, human C2 zymogen analyte, HBS-EP, pH 7.3, 37 C.
Procedure: as §3, §4

Positions count from the first letter of the chain named. Names may count otherwise.

Broadly, the Kd is the constant that tells how readily two partners part at equilibrium.

T1 sequence (P55899 24-297 limits assumed, chain 1 of 2): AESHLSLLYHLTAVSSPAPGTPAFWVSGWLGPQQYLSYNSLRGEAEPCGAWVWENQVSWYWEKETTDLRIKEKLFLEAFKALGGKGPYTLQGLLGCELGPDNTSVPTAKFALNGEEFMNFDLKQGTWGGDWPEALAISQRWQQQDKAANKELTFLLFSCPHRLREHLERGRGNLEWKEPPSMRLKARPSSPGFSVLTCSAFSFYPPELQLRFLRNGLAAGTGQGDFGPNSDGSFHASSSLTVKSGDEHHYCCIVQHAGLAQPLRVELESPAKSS
T1 sequence (P61769 21-119 limits assumed, chain 2 of 2): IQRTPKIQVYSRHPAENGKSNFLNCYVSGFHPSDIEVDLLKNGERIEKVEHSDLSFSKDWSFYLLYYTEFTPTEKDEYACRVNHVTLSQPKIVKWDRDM
T2 sequence (Q8SPV9 24-297 limits assumed, chain 1 of 2): as the sequence (P55899 24-297 limits assumed, chain 1 of 2) above, with N39D, E44Q, G99S, S189G, S190N, L217M, S269T counted along it
T2 sequence (Q8SPW0 21-119 limits assumed, chain 2 of 2): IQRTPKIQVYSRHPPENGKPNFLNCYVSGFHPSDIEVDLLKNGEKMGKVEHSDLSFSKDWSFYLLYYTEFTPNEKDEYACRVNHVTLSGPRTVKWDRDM
Procedure for human C2b: as §3, §4

B1: RF16-226 M252Y, N286E, N434Y (antibody, human IgG4 S228P, lambda)
heavy: EVQLVQSGAEVKKPGESLKISCKGSGYSFTSYWIGWVRQMPGKGLEWMGIIYPGDSDTRYSPSFQGQVTISADKSISTAYLQWSSLKASDTAMYYCARRFSYSSGWDMWGQGTLVTVSSASTKGPSVFPLAPCSRSTSESTAALGCLVKDYFPEPVTVSWNSGALTSGVHTFPAVLQSSGLYSLSSVVTVPSSSLGTKTYTCNVDHKPSNTKVDKRVESKYGPPCPPCPAPEFLGGPSVFLFPPKPKDTLYISRTPEVTCVVVDVSQEDPEVQFNWYVDGVEVHEAKTKPREEQFNSTYRVVSVLTVLHQDWLNGKEYKCKVSNKGLPSSIEKTISKAKGQPREPQVYTLPPSQEEMTKNQVSLTCLVKGFYPSDIAVEWESNGQPENNYKTTPPVLDSDGSFFLYSRLTVDKSRWQEGNVFSCSVMHEALHYHYTQKSLSLSLGK
light: SYELTQPPSVSVSPGQTARITCSGDALTSKYVAWYQQKSGLAPLLVIYEDTRRPSGIPAKFSGSSSGSVATLTISGAHGDDEADYYCYSTDASGHQRVFGGGTKLTVLSQPKAAPSVTLFPPSSEELQANKATLVCLISDFYPGAVTVAWKADGSPVKAGVETTKPSKQSNNKYAASSYLSLTPEQWKSHRSYSCQVTHEGSTVEKTVAPTECS
For the molecule B1, the Kd with human FcRn/β2m [1] was found to be 22 nM; in the experiment with human FcRn/β2m [2] it was 3300 nM.

B2: RF16-226 M428L, N434A (antibody, human IgG4 S228P, lambda)
heavy: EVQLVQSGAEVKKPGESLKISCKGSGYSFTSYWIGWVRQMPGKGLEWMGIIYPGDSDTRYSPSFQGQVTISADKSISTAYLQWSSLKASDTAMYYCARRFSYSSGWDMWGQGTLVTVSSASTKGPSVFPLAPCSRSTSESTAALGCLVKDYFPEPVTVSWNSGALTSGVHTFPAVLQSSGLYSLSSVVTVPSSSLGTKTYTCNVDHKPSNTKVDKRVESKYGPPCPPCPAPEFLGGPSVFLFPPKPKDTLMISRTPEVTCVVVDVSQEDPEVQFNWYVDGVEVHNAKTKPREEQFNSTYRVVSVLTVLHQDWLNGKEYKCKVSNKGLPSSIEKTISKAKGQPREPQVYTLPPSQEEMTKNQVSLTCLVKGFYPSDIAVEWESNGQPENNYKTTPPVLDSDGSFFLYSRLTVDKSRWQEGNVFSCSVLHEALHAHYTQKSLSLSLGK
light: B1 light
In turn, B2 yielded a Kd in the experiment with human FcRn/β2m [3] of 640 nM.

B3: RF16-226 Fc mutant M428L, N434A (antibody, human IgG4 S228P, lambda)
heavy: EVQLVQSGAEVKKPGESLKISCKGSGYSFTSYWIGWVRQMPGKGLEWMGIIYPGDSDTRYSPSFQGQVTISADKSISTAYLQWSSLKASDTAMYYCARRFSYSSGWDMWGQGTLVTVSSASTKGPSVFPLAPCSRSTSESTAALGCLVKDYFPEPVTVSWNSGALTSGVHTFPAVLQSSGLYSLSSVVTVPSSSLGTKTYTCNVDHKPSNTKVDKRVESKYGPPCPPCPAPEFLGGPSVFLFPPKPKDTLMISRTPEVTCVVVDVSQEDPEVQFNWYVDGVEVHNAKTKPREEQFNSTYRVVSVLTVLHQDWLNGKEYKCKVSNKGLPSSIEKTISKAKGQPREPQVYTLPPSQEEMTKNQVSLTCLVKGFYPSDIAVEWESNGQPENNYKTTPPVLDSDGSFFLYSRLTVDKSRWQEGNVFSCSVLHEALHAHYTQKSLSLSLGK
light: B1 light
Regarding B3, in experiment [4], the dissociation constant Kd is 420 nM.

B4: RF16-226 M252Y, V308P, N434Y (antibody, human IgG4 S228P, lambda)
heavy: B1 heavy with E285N, V307P
light: B1 light
As for B4, the Kd turned out to be 10 nM in the experiment with human FcRn/β2m [1] and 1200 nM with human FcRn/β2m [2].

B5: RF16-226 M252Y, S254T, T256E (antibody, human IgG4 S228P, lambda)
heavy: B1 heavy with S253T, T255E, E285N, Y433N
light: B1 light
In the case of B5, binding with human FcRn/β2m [3] was characterised by a dissociation constant (Kd) of 680 nM.

B6: RF16-226G (antibody, human IgG4 S228P, lambda)
heavy: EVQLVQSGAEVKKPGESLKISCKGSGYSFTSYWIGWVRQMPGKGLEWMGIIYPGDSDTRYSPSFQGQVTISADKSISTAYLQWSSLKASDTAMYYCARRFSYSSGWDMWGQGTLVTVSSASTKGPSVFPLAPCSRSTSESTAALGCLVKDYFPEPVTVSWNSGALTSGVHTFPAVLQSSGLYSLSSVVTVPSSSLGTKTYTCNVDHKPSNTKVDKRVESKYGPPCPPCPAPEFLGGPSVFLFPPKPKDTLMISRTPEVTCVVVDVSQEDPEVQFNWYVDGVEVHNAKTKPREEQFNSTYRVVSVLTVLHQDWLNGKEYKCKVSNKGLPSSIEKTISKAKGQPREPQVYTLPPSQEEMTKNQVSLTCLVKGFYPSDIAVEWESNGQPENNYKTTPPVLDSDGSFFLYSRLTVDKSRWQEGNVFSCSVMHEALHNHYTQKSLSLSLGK
light: SYELTQPPSVSVSPGQTARITCSGDALTSKYVAWYQQKSGQAPVLVIYEDTRRPSGIPERFSGSSSGTMATLTISGAQVEDEADYYCYSTDASGHQRVFGGGTKLTVLGQPKAAPSVTLFPPSSEELQANKATLVCLISDFYPGAVTVAWKADSSPVKAGVETTTPSKQSNNKYAASSYLSLTPEQWKSHRSYSCQVTHEGSTVEKTVAPTECS
Consider B6, for which the binding result with human C2b was “no binding (tested: C2b tested up to 1000 nM)”; in experiment [5] it was “no binding (tested: C2a tested up to 500 nM)”. The molecule also came in with an equilibrium dissociation constant (Kd) in experiment [6] of 7 nM.

B7: RF16-226G YPY (RF16-226G with the M252Y, V308P and N434Y Fc mutations) (antibody, human IgG4 S228P, lambda)
heavy: B1 heavy with E285N, V307P
light: B6 light
As to B7, the binding result with human C2b is reported as “no binding (tested: C2b tested up to 1000 nM)”; in experiment [5], “no binding (tested: C2a tested up to 500 nM)”. Also, the equilibrium dissociation constant (Kd) in experiment [6] was found to be 8 nM.
